# Target: Androgen receptor DNA-binding domain (AR-DBD) (UniProt P10275 560-632)
# Assay: EMSA; Odyssey infrared EMSA kit (LI-COR): 2.5 mM DTT/0.25% Tween 20, poly(dI.dC), room temperature 30 min, increasing protein; 6% TBE native gel; salt and pH not stated
# Conditions: protein: recombinant; chain copies: 2; label: 5' IRDye700 on both strands; blunt
# Sequence of Androgen receptor DNA-binding domain (AR-DBD) (P10275 560-632): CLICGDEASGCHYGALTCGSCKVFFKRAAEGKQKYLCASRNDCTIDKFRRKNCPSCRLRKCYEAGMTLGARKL
row,Binder,binding result
1,SDHA ARE probe (dsDNA) DNA 1: GCGACTTGTGCTGGCTGAGGGA DNA 2: TCCCTCAGCCAGCACAAGTCGC,binds
2,SDHB ARE probe (dsDNA) DNA 1: AGAGCTCCCTGTACTTTCCCAACA DNA 2: TGTTGGGAAAGTACAGGGAGCTCT,binds
